The chains are these.
B1: PDE9A: human host interactor protein, Gene ID 5152, expressed from transfected ORF vector (protein)
chain: MGSGSSSYRPKAIYLDIDGRIQKVIFSKYCNSSDIMDLFCIATGLPRNTTISLLTTDDAMVSIDPTMPANSERTPYKVRPVAIKQLSAGVEDKRTTSRGQSAERPLRDRRVVGLEQPRREGAFESGQVEPRPREPQGCYQEGQRIPPEREELIQSVLAQVAEQFSRAFKINELKAEVANHLAVLEKRVELEGLKVVEIEKCKSDIKKMREELAARSSRTNCPCKYSFLDNHKKLTPRRDVPTYPKYLLSPETIEALRKPTFDVWLWEPNEMLSCLEHMYHDLGLVRDFSINPVTLRRWLFCVHDNYRNNPFHNFRHCFCVAQMMYSMVWLCSLQEKFSQTDILILMTAAICHDLDHPGYNNTYQINARTELAVRYNDISPLENHHCAVAFQILAEPECNIFSNIPPDGFKQIRQGMITLILATDMARHAEIMDSFKEKMENFDYSNEEHMTLLKMILIKCCDISNEVRPMEVAEPWVDCLLEEYFMQSDREKSEGLPVAPFMDRDKVTKATAQIGFIKFVLIPMFETVTKLFPMVEEIMLQPLWESRDRYEELKRIDDAMKELQKKTDSLTSGATEKSRERSRDVKNSEGDCA
B2: SPAG5: human host interactor protein, Gene ID 10615, expressed from transfected ORF vector (protein)
chain: MWRVKKLSLSLSPSPQTGKPSMRTPLRELTLQPGALTNSGKRSPACSSLTPSLCKLGLQEGSNNSSPVDFVNNKRTDLSSEHFSHSSKWLETCQHESDEQPLDPIPQISSTPKTSEEAVDPLGNYMVKTIVLVPSPLGQQQDMIFEARLDTMAETNSISLNGPLRTDDLVREEVAPCMGDRFSEVAAVSEKPIFQESPSHLLEESPPNPCSEQLHCSKESLSSRTEAVREDLVPSESNAFLPSSVLWLSPSTALAADFRVNHVDPEEEIVEHGAMEEREMRFPTHPKESETEDQALVSSVEDILSTCLTPNLVEMESQEAPGPAVEDVGRILGSDTESWMSPLAWLEKGVNTSVMLENLRQSLSLPSMLRDAAIGTTPFSTCSVGTWFTPSAPQEKSTNTSQTGLVGTKHSTSETEQLLCGRPPDLTALSRHDLEDNLLSSLVILEVLSRQLRDWKSQLAVPHPETQDSSTQTDTSHSGITNKLQHLKESHEMGQALQQARNVMQSWVLISKELISLLHLSLLHLEEDKTTVSQESRRAETLVCCCFDLLKKLRAKLQSLKAEREEARHREEMALRGKDAAEIVLEAFCAHASQRISQLEQDLASMREFRGLLKDAQTQLVGLHAKQEELVQQTVSLTSTLQQDWRSMQLDYTTWTALLSRSRQLTEKLTVKSQQALQERDVAIEEKQEVSRVLEQVSAQLEECKGQTEQLELENSRLATDLRAQLQILANMDSQLKELQSQHTHCAQDLAMKDELLCQLTQSNEEQAAQWQKEEMALKHMQAELQQQQAVLAKEVRDLKETLEFADQENQVAHLELGQVECQLKTTLEVLRERSLQCENLKDTVENLTAKLASTIADNQEQDLEKTRQYSQKLGLLTEQLQSLTLFLQTKLKEKTEQETLLLSTACPPTQEHPLPNDRTFLGSILTAVADEEPESTPVPLLGSDKSAFTRVASMVSLQPAETPGMEESLAEMSIMTTELQSLCSLLQESKEEAIRTLQRKICELQARLQAQEEQHQEVQKAKEADIEKLNQALCLRYKNEKELQEVIQQQNEKILEQIDKSGELISLREEVTHLTRSLRRAETETKVLQEALAGQLDSNCQPMATNWIQEKVWLSQEVDKLRVMFLEMKNEKEKLMIKFQSHRNILEENLRRSDKELEKLDDIVQHIYKTLLSIPEVVRGCKELQGLLEFLS
B3: TEX11: human host interactor protein, Gene ID 56159, expressed from transfected ORF vector (protein)
chain: MISAHCNLRLLCSSDSSASASQVAGTTEVVENLVTNDNSPNIPEAIDRLFSDIANINRESMAEITDIQIEEMAVNLWNWALTIGGGWLVNEEQKIRLHYVACKLLSMCEASFASEQSIQRLIMMNMRIGKEWLDAGNFLIADECFQAAVASLEQLYVKLIQRSSPEADLTMEKITVESDHFRVLSYQAESAVAQGDFQRASMCVLQCKDMLMRLPQMTSSLHHLCYNFGVETQKNNKYEESSFWLSQSYDIGKMDKKSTGPEMLAKVLRLLATNYLDWDDTKYYDKALNAVNLANKEHLSSPGLFLKMKILLKGETSNEELLEAVMEILHLDMPLDFCLNIAKLLMDHERESVGFHFLTIIHERFKSSENIGKVLILHTDMLLQRKEELLAKEKIEEIFLAHQTGRQLTAESMNWLHNILWRQAASSFEVQNYTDALQWYYYSLRFYSTDEMDLDFTKLQRNMACCYLNLQQLDKAKEAVAEAERHDPRNVFTQFYIFKIAVIEGNSERALQAIITLENILTDEESEDNDLVAERGSPTMLLSLAAQFALENGQQIVAEKALEYLAQHSEDQEQVLTAVKCLLRFLLPKIAEMPESEDKKKEMDRLLTCLNRAFVKLSQPFGEEALSLESRANEAQWFRKTAWNLAVQCDKDPVMMREFFILSYKMSQFCPSDQVILIARKTCLLMAVAVDLEQGRKASTAFEQTMFLSRALEEIQTCNDIHNFLKQTGTFSNDSCEKLLLLYEFEVRAKLNDPLLESFLESVWELPHLETKTFETIAIIAMEKPAHYPLIALKALKKALLLYKKEEPIDISQYSKCMHNLVNLSVPDGASNVELCPLEEVWGYFEDALSHISRTKDYPEMEILWLMVKSWNTGVLMFSRSKYASAEKWCGLALRFLNHLTSFKESYETQMNMLYSQLVEALSNNKGPVFHEHGYWSKSD
B4: SF3A3: human host interactor protein, Gene ID 10946, expressed from transfected ORF vector (protein)
chain: METILEQQRRYHEEKERLMDVMAKEMLTKKSTLRDQINSDHRTRAMQDRYMEVSGNLRDLYDDKDGLRKEELNAISGPNEFAEFYNRLKQIKEFHRKHPNEICVPMSVEFEELLKARENPSEEAQNLVEFTDEEGYGRYLDLHDCYLKYINLKASEKLDYITYLSIFDQLFDIPKERKNAEYKRYLEMLLEYLQDYTDRVKPLQDQNELFGKIQAEFEKKWENGTFPGWPKETSSALTHAGAHLDLSAFSSWEELASLGLDRLKSALLALGLKCGGTLEERAQRLFSTKGKSLESLDTSLFAKNPKSKGTKRDTERNKDIAFLEAQIYEYVEILGEQRHLTHENVQRKQARTGEEREEEEEEQISESESEDEENEIIYNPKNLPLGWDGKPIPYWLYKLHGLNINYNCEICGNYTYRGPKAFQRHFAEWRHAHGMRCLGIPNTAHFANVTQIEDAVSLWAKLKLQKASERWQPDTEEEYEDSSGNVVNKKTYEDLKRQGLL
B5: PIAS2: human host interactor protein, Gene ID 9063, expressed from transfected ORF vector (protein)
chain: MADFEELRNMVSSFRVSELQVLLGFAGRNKSGRKHDLLMRALHLLKSGCSPAVQIKIRELYRRRYPRTLEGLSDLSTIKSSVFSLDGGSSPVEPDLAVAGIHSLPSTSVTPHSPSSPVGSVLLQDTKPTFEMQQPSPPIPPVHPDVQLKNLPFYDVLDVLIKPTSLVQSSIQRFQEKFFIFALTPQQVREICISRDFLPGGRRDYTVQVQLRLCLAETSCPQEDNYPNSLCIKVNGKLFPLPGYAPPPKNGIEQKRPGRPLNITSLVRLSSAVPNQISISWASEIGKNYSMSVYLVRQLTSAMLLQRLKMKGIRNPDHSRALIKEKLTADPDSEIATTSLRVSLMCPLGKMRLTIPCRAVTCTHLQCFDAALYLQMNEKKPTWICPVCDKKAAYESLILDGLFMEILNDCSDVDEIKFQEDGSWCPMRPKKEAMKVSSQPCTKIESSSVLSKPCSVTVASEASKKKVDVIDLTIESSSDEEEDPPAKRKCIFMSETQSSPTKGVLMYQPSSVRVPSVTSVDPAAIPPSLTDYSVPFHHTPISSMSSDLPGLDFLSLIPVDPQYCPPMFLDSLTSPLTASSTSVTTTSSHESSTHVSSSSSRSETGVITSSGSNIPDIISLD
B6: SP100: human host interactor protein, Gene ID 6672, expressed from transfected ORF vector (protein)
chain: MAGGGGDLSTRRLNECISPVANEMNHLPAHSHDLQRMFTEDQGVDDRLLYDIVFKHFKRNKVEISNAIKKTFPFLEGLRDRDLITNKMFEDSQDSCRNLVPVQRVVYNVLSELEKTFNLPVLEALFSDVNMQEYPDLIHIYKGFENVIHDKLPLQESEEEEREERSGLQLSLEQGTGENSFRSLTWPPSGSPSHAGTTPPENGLSEHPCETEQINAKRKDTTSDKDDSLGSQQTNEQCAQKAEPTESCEQIAVQVNNGDAGREMPCPLPCDEESPEAELHNHGIQINSCSVRLVDIKKEKPFSNSKVECQAQARTHHNQASDIIVISSEDSEGSTDVDEPLEVFISAPRSEPVINNDNPLESNDEKEGQEATCSRPQIVPEPMDFRKLSTFRESFKKRVIGQDHDFSESSEEEAPAEASSGALRSKHGEKAPMTSRSTSTWRIPSRKRRFSSSDFSDLSNGEELQETCSSSLRRGSGSQPQEPENKKCSCVMCFPKGVPRSQEARTESSQASDMMDTMDVENNSTLEKHSGKRRKKRRHRSKVNGLQRGRKKDRPRKHLTLNNKVQKKRWQQRGRKANTRPLKRRRKRGPRIPKDENINFKQSELPVTCGEVKGTLYKERFKQGTSKKCIQSEDKKWFTPREFEIEGDRGASKNWKLSIRCGGYTLKVLMENKFLPEPPSTRKKRILESHNNTLVDPCEEHKKKNPDASVKFSEFLKKCSETWKTIFAKEKGKFEDMAKADKAHYEREMKTYIPPKGEKKKKFKDPNAPKRPPLAFFLFCSEYRPKIKGEHPGLSIDDVVKKLAGMWNNTAAADKQFYEKKAAKLKEKYKKDIAAYRAKGKPNSAKKRVVKAEKSKKKKEEEEDEEDEQEEENEEDDDK

The experiment concerns HIV-1 LTR promoter transactivation by HIV-1 Tat. The experiment in a line: Transactivation assay, HIV-1 LTR luciferase reporter with HIV-1 Tat. The class given is cell-based. As to conditions: HEK293 cells co-transfected with pHIV1LTR-Luc, HIV-1 Tat and the human ORF; relative luciferase activity 24 h post-transfection; positive if >=2 or <=0.5 and p<0.05. From the text:
The plasmids pHIV1LTR-Luc or pHTLV1LTR-Luc containing a luciferase reporter gene under the control of the HIV-1 or HTLV-1 LTR promoters and plasmids expressing either HIV-1 Tat or HTLV-1 Tax and each human ORF found to interact with viral proteins were transfected into 10^4 HEK293 cells using the calcium phosphate method. Twenty-four hours post-transfection, cells were washed three times with PBS, lysed and luciferase activities determined from two independent transfection experiments in triplicate. We computed a paired t-test to assess the difference of the means between samples with and without the human interactor. For a trial to be considered positive, the relative luciferase activities has to be >=2 or <=0.5, and the p-value of the t-test<0.05.
Many HIV/HTLV-human interactions in our data set (130/212) involved the retroviral transactivator proteins HTLV-1 Tax (57/212), HTLV-2 Tax2 (49/212), HIV-1 Tat (10/212) and HIV-2 Tat (14/212). Human proteins interacting with viral transactivators likely influence Tat or Tax transactivation. Expression vectors encoding human ORFs and HIV-1 Tat or HTLV-1 Tax proteins were tested in a transactivation reporter assay against reporter plasmids harboring HIV-1 or HTLV-1 viral promoter sequences cloned upstream of the luciferase reporter gene. In the controls Tat or Tax respectively activated HIV or HTLV LTR-directed gene expression. Co-transfection of interacting human ORFs identified 71 proteins (54% of the 131 human targets in our data set) that regulated HIV (26.7% of targets), HTLV (37.4% of targets) or both (9.9% of targets) LTR promoter activation by Tat or Tax (see Tables 7 and 8; Table 13 below containing quantitative data on the regulation of transactivation). Wherever not expressly specified, constructs used herein were generally made by sub-cloning entry clones from the ORFeome V3.1 into suitable destination vectors.
A general note: In a reporter assay the amount or activity of a reporter protein is the signal.
B1 had an HIV_LTR transactiv. of 0.28 fold change.

In turn, B2 returned an HIV_LTR transactiv. of 0.16 fold change.

B3: the HIV_LTR transactiv. is given as 4.41 fold change.

Regarding B4, the HIV_LTR transactiv. worked out at 0.49 fold change.

In the case of B5, the HIV_LTR transactiv. is reported as 0.42 fold change.

As to B6, the HIV_LTR transactiv. is recorded as 3.69 fold change.

(Values after US20120090043A1, “TARGETS FOR RETROVIRUS ASSOCIATED DISEASES” (priority 2009, published 2012).)
